Assay results taken from IntAct's records for PubMed 21107322.

B1: G2/mitotic-specific cyclin cdc13 (Schizosaccharomyces pombe (strain ATCC 38366 / 972)), P10815 (parent)
chain: MTTRRLTRQHLLANTLGNNDENHPSNHIARAKSSLHSSENSLVNGKKATVSSTNVPKKRHALDDVSNFHNKEGVPLASKNTNVRHTTASVSTRRALEEKSIIPATDDEPASKKRRQPSVFNSSVPSLPQHLSTKSHSVSTHGVDAFHKDQATIPKKLKKDVDERVVSKDIPKLHRDSVESPESQDWDDLDAEDWADPLMVSEYVVDIFEYLNELEIETMPSPTYMDRQKELAWKMRGILTDWLIEVHSRFRLLPETLFLAVNIIDRFLSLRVCSLNKLQLVGIAALFIASKYEEVMCPSVQNFVYMADGGYDEEEILQAERYILRVLEFNLAYPNPMNFLRRISKADFYDIQTRTVAKYLVEIGLLDHKLLPYPPSQQCAAAMYLAREMLGRGPWNRNLVHYSGYEEYQLISVVKKMINYLQKPVQHEAFFKKYASKKFMKASLFVRDWIKKNSIPLGDDADEDYTFHKQKRIQHDMKDEEW
partner: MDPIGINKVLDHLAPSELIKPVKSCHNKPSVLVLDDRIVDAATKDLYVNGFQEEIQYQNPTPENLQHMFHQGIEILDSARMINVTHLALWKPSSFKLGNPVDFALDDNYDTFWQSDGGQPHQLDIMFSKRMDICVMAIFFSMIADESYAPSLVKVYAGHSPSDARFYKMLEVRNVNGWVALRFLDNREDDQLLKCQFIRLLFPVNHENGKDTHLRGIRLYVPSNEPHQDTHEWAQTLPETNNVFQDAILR

Variants of: B1
Conditions: with apc10_yeast DOC1, P53068

Row | Variant | effect of a mutation on the interaction
1 | R59A;L62A;V65A;N67A | decreasing interaction
